Laboratory results published in publication PMC7305985.
Each block holds one substance with its values, some of them ahead of it.

Columns and labels:
[1] = target: Mononucleosomes, Recombinant Human Biotinylated (human) (UniProt P04908); experiment: pull-down
FLAG-tagged KAP1 ΔRB = experiment: co-IP
[2] = target: Histone H4K5ac peptide, biotinylated (1–23) (UniProt P62805); experiment: pull-down

Chain of endogenous SMAD2 (Q15796 whole entry): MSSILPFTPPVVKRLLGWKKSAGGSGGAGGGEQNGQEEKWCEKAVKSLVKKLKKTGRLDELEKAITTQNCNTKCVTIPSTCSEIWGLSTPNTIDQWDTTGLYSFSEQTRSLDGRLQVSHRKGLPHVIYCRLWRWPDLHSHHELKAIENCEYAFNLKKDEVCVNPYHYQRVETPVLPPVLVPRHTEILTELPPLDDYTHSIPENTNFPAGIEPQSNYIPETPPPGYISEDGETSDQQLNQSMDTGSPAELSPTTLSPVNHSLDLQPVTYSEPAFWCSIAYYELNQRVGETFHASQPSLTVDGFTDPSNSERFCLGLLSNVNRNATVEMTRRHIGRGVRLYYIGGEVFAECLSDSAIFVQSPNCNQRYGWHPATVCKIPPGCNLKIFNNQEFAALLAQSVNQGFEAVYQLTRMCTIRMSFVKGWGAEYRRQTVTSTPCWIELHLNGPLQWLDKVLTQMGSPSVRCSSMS
Chain of FLAG-tagged KAP1 ΔRB (Q13263 2-835, stated change not applied): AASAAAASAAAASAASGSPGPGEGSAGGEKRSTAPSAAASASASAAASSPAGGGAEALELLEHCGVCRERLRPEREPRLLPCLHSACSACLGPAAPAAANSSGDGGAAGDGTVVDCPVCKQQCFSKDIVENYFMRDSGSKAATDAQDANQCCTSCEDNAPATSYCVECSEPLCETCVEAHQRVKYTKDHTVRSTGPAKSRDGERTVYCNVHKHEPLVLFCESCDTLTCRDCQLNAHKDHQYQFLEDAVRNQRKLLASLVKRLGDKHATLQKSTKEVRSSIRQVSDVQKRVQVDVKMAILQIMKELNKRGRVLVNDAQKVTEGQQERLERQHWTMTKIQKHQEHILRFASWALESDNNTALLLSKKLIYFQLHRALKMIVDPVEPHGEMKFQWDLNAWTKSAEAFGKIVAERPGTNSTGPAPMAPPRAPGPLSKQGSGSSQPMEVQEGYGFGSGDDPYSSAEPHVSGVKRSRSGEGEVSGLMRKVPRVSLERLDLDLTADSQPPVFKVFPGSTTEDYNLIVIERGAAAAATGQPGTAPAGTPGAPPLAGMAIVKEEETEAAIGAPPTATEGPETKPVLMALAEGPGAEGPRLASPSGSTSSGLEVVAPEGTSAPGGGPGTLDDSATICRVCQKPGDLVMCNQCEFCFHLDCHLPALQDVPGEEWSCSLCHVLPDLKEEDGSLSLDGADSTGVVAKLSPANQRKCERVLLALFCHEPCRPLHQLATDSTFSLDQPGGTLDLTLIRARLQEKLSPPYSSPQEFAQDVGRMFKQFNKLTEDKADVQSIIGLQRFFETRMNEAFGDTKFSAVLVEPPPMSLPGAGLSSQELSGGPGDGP

percent reduction in binding relative to WT KAP1 [1]: 80%
Substance: GST-tagged KAP1 PHD-BD E662/663A (from UniProt Q13263 614-835) (domain or fragment)

percent decrease in binding relative to WT KAP1 (FLAG-tagged KAP1 ΔRB): 80%
Substance: endogenous SMAD2 (from UniProt Q15796 1-467) (natural protein)

percent lower binding relative to unmodified H4 [2]: 30%
Substance: GST-tagged KAP1 PHD-BD (residues 614–835) (from UniProt Q13263 614-835) (domain or fragment)
